± gives the uncertainty stated by the source.
Test: amyloid nucleation score (Sup35N fusion, yeast selection) (log enrichment); library NNK2; higher = more nucleation; inactive = no reads after selection
How it was run: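 Sup35N was fused to peptides of 20 random codons and expressed in psi-negative yeast, which were induced with 100 μM copper sulfate for 24 hours and then grown on medium lacking adenine and uracil for 7 days at 30°C. Plasmid inserts from input and output were sequenced on Illumina. The nucleation score is the DiMSum log enrichment of output over input reads, centred on the mode score of non-aggregating sequences. Sequences with under 100 input reads were left out, and random libraries had three technical output replicates.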

Q: For LGYFTLSFS, which amyloid nucleation score is on record?
A: 0.627 ± 0.81

Q: With LGYLIPNDEYFILWVIVCWN as the substance, how does the amyloid nucleation score read?
A: -0.024 ± 1

Q: For LHDLDWYSGILIQFDSDMRW, which amyloid nucleation score is on record?
A: 1.37 ± 0.15

Q: Which amyloid nucleation score does the source give for LHFGAGLTSSVCPSLYSQ here?
A: -0.931 ± 1.1

Q: With LHFTYCGSVMNVANDMVFVQ as the substance, how does the amyloid nucleation score read?
A: 0.106 ± 1

Q: Which amyloid nucleation score does the source give for LHGQVYMIQG here?
A: 2.17 ± 0.13

Q: For LHHFSVTYNSITFCLNFPFR, which amyloid nucleation score is on record?
A: 4.11 ± 0.065

Q: Which amyloid nucleation score does the source give for LHQGSVCWDWLPVYEVTVLG here?
A: 0.049 ± 0.44

Q: With LHQTV as the substance, how does the amyloid nucleation score read?
A: 0.79 ± 0.57

Q: Which amyloid nucleation score does the source give for LHTTCLFSRWNVFL here?
A: 2.3 ± 0.076

Q: For LIARSLGFKNVWS, which amyloid nucleation score is on record?
A: -0.575 ± 0.54

Q: Which amyloid nucleation score does the source give for LIFRSVSVSFIPLLMKDGNG here?
A: -0.042 ± 0.74

Q: Which amyloid nucleation score does the source give for LIKLMGLV here?
A: 0.466 ± 0.43

Q: Which amyloid nucleation score does the source give for LILMAENL here?
A: -0.92 ± 1.1

Q: For LINWVVVLYG, which amyloid nucleation score is on record?
A: 1.9 ± 0.14

Q: With LIRGVII as the substance, how does the amyloid nucleation score read?
A: 0.21 ± 0.54

Q: With LISTELGPTSFYLHKSLSSR as the substance, how does the amyloid nucleation score read?
A: -1.02 ± 0.62

Q: With LITIAIAARCSRMIGLQLFL as the substance, how does the amyloid nucleation score read?
A: -0.495 ± 0.32

Q: For LIVKLANTGRSQHHIRSWLS, which amyloid nucleation score is on record?
A: -0.212 ± 0.38

Q: Which amyloid nucleation score does the source give for LIWGTPYKAW here?
A: 0.859 ± 0.41

Q: For LIYIICVSLFSRVVMVIANF, which amyloid nucleation score is on record?
A: -1.25 ± 0.78

Q: With LKARIACADYIRSGIILLCS as the substance, how does the amyloid nucleation score read?
A: 2.2 ± 0.08

Q: For LKCRVITQSCIPSSINRLDG, which amyloid nucleation score is on record?
A: -0.02 ± 0.22

Q: Which amyloid nucleation score does the source give for LKHKHRNMRITCSASI here?
A: -0.269 ± 0.25

Q: For LKIFLLIVVGDDFMKSKYCP, which amyloid nucleation score is on record?
A: -0.612 ± 0.64

Q: Which amyloid nucleation score does the source give for LKKFVPPELRSADVDRKCSK here?
A: inactive

Q: With LKMIWIYSFCLILVLYLRQA as the substance, how does the amyloid nucleation score read?
A: 0.148 ± 1

Q: For LKRYKVRQFSTCLWAGAYSQ, which amyloid nucleation score is on record?
A: 0.407 ± 0.23

Q: With LKSSNRGNVRKRLLGEDEGT as the substance, how does the amyloid nucleation score read?
A: 0.245 ± 0.37

Q: For LKWDFRIYTTSWAAKKQGME, which amyloid nucleation score is on record?
A: 0.095 ± 0.37

Q: Which amyloid nucleation score does the source give for LLACLKGTSGAGRIYAYLMT here?
A: -0.096 ± 0.3

Q: For LLAFFMWSLRQRDSGTLLLD, which amyloid nucleation score is on record?
A: -0.63 ± 0.52

Q: With LLAFHCGHQMCFGVINMSTG as the substance, how does the amyloid nucleation score read?
A: 3.83 ± 0.065

Q: With LLALTFSTETQGRHTKCHSL as the substance, how does the amyloid nucleation score read?
A: 4.07 ± 0.094

Q: With LLAVFTSCYCQECYVEPALV as the substance, how does the amyloid nucleation score read?
A: 5.55 ± 0.07

Q: With LLCCIIIIGMVLGLMTDPEW as the substance, how does the amyloid nucleation score read?
A: -0.781 ± 0.76

Q: Which amyloid nucleation score does the source give for LLCMVIMVGFYSRSAGNTDQ here?
A: 0.696 ± 0.6

Q: With LLCVGHFFLQ as the substance, how does the amyloid nucleation score read?
A: inactive

Q: Which amyloid nucleation score does the source give for LLDWTLLSNST here?
A: inactive

Q: With LLETMAK as the substance, how does the amyloid nucleation score read?
A: inactive

Q: Which amyloid nucleation score does the source give for LLFPCFVTRSLVS here?
A: -0.871 ± 0.32

Q: Which amyloid nucleation score does the source give for LLFPLGISHAYMGRFFFRMV here?
A: -0.266 ± 1.1

Q: With LLHAVQDHVGLPTVYRRCSR as the substance, how does the amyloid nucleation score read?
A: 2.79 ± 0.11

Q: For LLLCYYVFASHKFCCGDGVL, which amyloid nucleation score is on record?
A: -0.302 ± 0.76

Q: Which amyloid nucleation score does the source give for LLLRGQLQVMPGDPARRMYV here?
A: 0.556 ± 0.29

Q: Which amyloid nucleation score does the source give for LLMFRVRVDELWHGAARHMG here?
A: 1.64 ± 0.38

Q: For LLMQVIRPVNLLFRWRELWA, which amyloid nucleation score is on record?
A: 0.213 ± 0.34

Q: For LLMVRVGRSQVRSNKNRH, which amyloid nucleation score is on record?
A: 5.984 ± 0.054

Q: Which amyloid nucleation score does the source give for LLPATWYLVLF here?
A: -0.204 ± 0.49

Q: With LLPIGEVKE as the substance, how does the amyloid nucleation score read?
A: -1.17 ± 0.44

Q: Which amyloid nucleation score does the source give for LLPYSSHN here?
A: 4.901 ± 0.039

Q: For LLTMVHTSSIRKESGF, which amyloid nucleation score is on record?
A: -0.118 ± 0.5

Q: Which amyloid nucleation score does the source give for LLTTEQ here?
A: 1.29 ± 0.43

Q: With LLVAEVV as the substance, how does the amyloid nucleation score read?
A: 0.538 ± 0.49

Q: With LLYRYYSF as the substance, how does the amyloid nucleation score read?
A: 3.72 ± 0.056

Q: For LLYTDYMMIYCIAFMLSDDY, which amyloid nucleation score is on record?
A: -0.916 ± 1.1

Q: Which amyloid nucleation score does the source give for LMDQSTFNRVKYVGHWVVSG here?
A: 1.74 ± 0.087

Q: Which amyloid nucleation score does the source give for LMFTCVMSFWRLSVRVILNY here?
A: 0.277 ± 0.41

Q: Which amyloid nucleation score does the source give for LMSNINVSIYIFG here?
A: 7.782 ± 0.063

Q: With LMSQGCRGRLLL as the substance, how does the amyloid nucleation score read?
A: -0.356 ± 0.64

Q: With LMVESNWHALHLVYVFSYI as the substance, how does the amyloid nucleation score read?
A: 0 ± 0.56

Q: For LMVKSDTCLLSLLSPTPFRR, which amyloid nucleation score is on record?
A: 3.67 ± 0.1

Q: For LMYGKEWSMEQIVGTSTFGY, which amyloid nucleation score is on record?
A: -1.36 ± 0.48

Q: For LNCENELDFKLLSQSNTTMC, which amyloid nucleation score is on record?
A: 0.199 ± 0.62

Q: With LNEIERSSD as the substance, how does the amyloid nucleation score read?
A: 0.755 ± 0.3

Q: For LNIAMVASNGRSVAVRSSGG, which amyloid nucleation score is on record?
A: 0.113 ± 0.5

Q: With LNLFFLCGYPYYRNVGCMGH as the substance, how does the amyloid nucleation score read?
A: 7.195 ± 0.067

Q: With LNLNR as the substance, how does the amyloid nucleation score read?
A: inactive

Q: With LNMPLLYDYPCYNSWDRYYS as the substance, how does the amyloid nucleation score read?
A: -1.5 ± 0.53

Q: For LNPIFVWFHSC, which amyloid nucleation score is on record?
A: 7.23 ± 0.077

Q: For LNRLCRRVCRSINDTIAIRE, which amyloid nucleation score is on record?
A: -0.157 ± 0.26

Q: With LNRTRYIAISKVLNRFSVSR as the substance, how does the amyloid nucleation score read?
A: -0.237 ± 0.64

Q: Which amyloid nucleation score does the source give for LNSQSLVAYMRAFVKDSPCR here?
A: 0.007 ± 1.1

Q: With LNSYPASV as the substance, how does the amyloid nucleation score read?
A: inactive

Q: With LNTLDNN as the substance, how does the amyloid nucleation score read?
A: -0.047 ± 0.16

Q: With LNTYMAYSGWIVTN as the substance, how does the amyloid nucleation score read?
A: -0.148 ± 0.33

Q: With LNVDP as the substance, how does the amyloid nucleation score read?
A: inactive

Q: Which amyloid nucleation score does the source give for LNYYWRFMPGGIGITGSSLS here?
A: 1.72 ± 0.12

Q: For LPCFYEVCQTSHYRFYFIGK, which amyloid nucleation score is on record?
A: 1.96 ± 0.071

Q: With LPCRFKKYALHNQSTTGFWI as the substance, how does the amyloid nucleation score read?
A: -0.187 ± 0.65

Q: For LPHCL, which amyloid nucleation score is on record?
A: 1.36 ± 0.24

Q: Which amyloid nucleation score does the source give for LPKGNYSLLAERRSYFGAPI here?
A: inactive

Q: For LQCAFFDSSNMWI, which amyloid nucleation score is on record?
A: -0.604 ± 0.76

Q: For LQCLSRASGHCPGRSTFWHF, which amyloid nucleation score is on record?
A: 1.02 ± 0.27

Q: With LQGRYNSTYYMDVAGLVVSE as the substance, how does the amyloid nucleation score read?
A: -1.23 ± 0.76

Q: Which amyloid nucleation score does the source give for LQLCCAMVS here?
A: 0.883 ± 0.44

Q: Which amyloid nucleation score does the source give for LQRVF here?
A: 1.19 ± 0.47

Reference: the supplement of paper PMC12042874
